In the series the target is integrin β1 (on KYSE410 ESCC cells) (UniProt P05556). Briefly: flow cytometry (cell binding). To be noted: 0.01 M PBS, 4.5 g/L glucose, 5 mM MgCl2, 1 mg/mL BSA, 0.1 mg/mL yeast tRNA, 30 min on ice, ~1e5 cells, pH not stated. (In general: Flow cytometry measures light scatter and fluorescence of single cells or particles in a stream.)
integrin β1 (on KYSE410 ESCC cells), sequence (P05556 21-798): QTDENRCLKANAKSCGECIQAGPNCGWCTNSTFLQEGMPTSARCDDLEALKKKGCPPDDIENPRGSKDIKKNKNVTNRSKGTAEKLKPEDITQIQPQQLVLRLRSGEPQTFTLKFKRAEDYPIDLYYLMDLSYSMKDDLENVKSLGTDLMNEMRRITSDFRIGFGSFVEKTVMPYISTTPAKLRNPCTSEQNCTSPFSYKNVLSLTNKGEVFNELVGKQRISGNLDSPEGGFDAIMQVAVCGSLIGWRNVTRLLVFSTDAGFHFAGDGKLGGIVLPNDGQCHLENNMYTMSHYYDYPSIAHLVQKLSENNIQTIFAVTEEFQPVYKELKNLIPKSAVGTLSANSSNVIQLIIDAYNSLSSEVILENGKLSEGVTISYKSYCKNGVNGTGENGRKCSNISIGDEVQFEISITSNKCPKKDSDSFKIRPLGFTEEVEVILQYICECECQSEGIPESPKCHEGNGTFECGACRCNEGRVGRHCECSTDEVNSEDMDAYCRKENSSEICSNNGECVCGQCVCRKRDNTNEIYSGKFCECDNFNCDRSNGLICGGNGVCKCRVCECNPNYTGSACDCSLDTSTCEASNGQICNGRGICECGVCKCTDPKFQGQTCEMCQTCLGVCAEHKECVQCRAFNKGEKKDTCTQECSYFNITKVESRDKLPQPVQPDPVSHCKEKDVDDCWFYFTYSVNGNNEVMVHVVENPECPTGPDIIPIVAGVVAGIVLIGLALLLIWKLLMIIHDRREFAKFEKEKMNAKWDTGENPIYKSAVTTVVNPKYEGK

The sequence “CGTCGTCGTCGTCGTCGTTTTCGCGAATGCTATCGGGGCTAAGTATCAAAATGAGC / ACGACGACGACGACGACGTTTCGCGAATGCTATCGGGGCTAAGTATCAAAATGAGC [BAD (bivalent aptamer-DNA carrier)]” yielded a Kd of 7.7 nM. In the case of “CGCGAATGCTATCGGGGCTAAGTATCAAAATGAGC [A2(35)]” it was 58.1 nM.

What is called Kd is the constant that tells how readily two partners part at equilibrium. A higher Kd goes with weaker binding.

(Values after PMC11276760.)
